Test results as given in patent US20220153821A1.

These binders were tested against recombinant human tau (human) (UniProt P10636) (assay: SPR, Biacore T200: antibody captured on anti-mouse CM5 chip, recombinant human tau 10-0.14 nM as analyte, global 1:1 fit).
Sequence of recombinant human tau (human) (P10636 other isoform, or with tags, fused parts or gaps limits assumed): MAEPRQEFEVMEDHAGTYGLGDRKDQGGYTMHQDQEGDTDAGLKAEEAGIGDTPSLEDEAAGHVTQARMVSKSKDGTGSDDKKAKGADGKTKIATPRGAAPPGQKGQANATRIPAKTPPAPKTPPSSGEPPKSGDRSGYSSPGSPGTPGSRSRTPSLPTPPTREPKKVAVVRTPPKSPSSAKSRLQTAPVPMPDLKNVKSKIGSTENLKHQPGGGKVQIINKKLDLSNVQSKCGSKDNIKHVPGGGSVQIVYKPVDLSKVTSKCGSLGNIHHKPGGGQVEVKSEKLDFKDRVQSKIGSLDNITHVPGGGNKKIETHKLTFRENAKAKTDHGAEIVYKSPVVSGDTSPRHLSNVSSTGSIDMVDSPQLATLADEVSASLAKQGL

Row | Binder | Kd [nM] | koff [s⁻¹] | kon [M⁻¹ s⁻¹]
1 | 7G6 (antibody, from another filing, V domains shown) VH: QVQLLQPGAELVKPGASVIMSCKASGYTFTTYWITWVKQRPGQGLEWIGDIYPGSSICNYNEKFKSKATLTVDTSSSTAYMQLNSLTSEDSAVYYCAREDGYDAWFAYWGQGTLVTVSA VL: DVLMTQTPLSLPVSLGDQASISCRSSQSILHSNGNTYLEWYLQKPGQSPKLLICKVSNRFSGVPDRFSGSGSGTDFTLKISRVEAEDLGVYYCFQGSHVPFTFGSGTKLEIK | 5.77 | 0.00332 | 576000

Each binder was assayed against pHrodo-labeled 4R0N human tau P301L soluble oligomer (human), P10636 (assay: cell-based or functional assay).
Sequence of pHrodo-labeled 4R0N human tau P301L soluble oligomer (human), P10636 (P10636 other isoform, or with tags, fused parts or gaps P301L P301L): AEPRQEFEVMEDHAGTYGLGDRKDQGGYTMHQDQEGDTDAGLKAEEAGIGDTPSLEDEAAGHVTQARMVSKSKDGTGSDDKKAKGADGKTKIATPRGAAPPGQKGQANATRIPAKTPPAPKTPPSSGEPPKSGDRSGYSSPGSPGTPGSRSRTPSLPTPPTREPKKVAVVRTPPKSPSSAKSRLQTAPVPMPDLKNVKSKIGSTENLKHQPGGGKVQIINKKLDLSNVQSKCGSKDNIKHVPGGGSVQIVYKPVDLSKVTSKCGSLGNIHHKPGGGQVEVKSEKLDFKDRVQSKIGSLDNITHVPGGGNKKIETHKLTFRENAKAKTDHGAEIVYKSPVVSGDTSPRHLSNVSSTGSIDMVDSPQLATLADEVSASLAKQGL

Row | Binder | Inhibition of cell based internalization (at 133 nM antibody concentration, % of inhibition of maximal fluorescent signal) [%]
2 | Hu3D6VHvb3 / Hu3D6VLvb3 (antibody, V domains shown, here or on the partner: pHrodo-labeled) VH: EVQLVQSGAEVVKPGATVKISCKASGFNIKDYYLHWVRQRPGKGLEWIGWIDPENGDTIYDPKFQGRATITADTSTDTAYMELSSLRSEDTAVYYCSTLDFWGQGTLVTVSS VL: DVVMTQSPLSLSVTLGEPASISCRSSQSLLDSDGKTYLNWLQQRPGQSPRRLIYLVSKLDSGVPDRFSGSGSGTDFTLKISRVEAEDVGVYYCWQGTHFPYTFGQGTKLEIKR | 72.1
3 | Hu3D6VHvb3 / Hu3D6VLvb2 (antibody, V domains shown, here or on the partner: pHrodo-labeled) VH: EVQLVQSGAEVVKPGATVKISCKASGFNIKDYYLHWVRQRPGKGLEWIGWIDPENGDTIYDPKFQGRATITADTSTDTAYMELSSLRSEDTAVYYCSTLDFWGQGTLVTVSS VL: not shown | 71.2
4 | Hu3D6VHvb2 / Hu3D6VLvb2 (antibody, V domains shown, here or on the partner: pHrodo-labeled) VH: EVQLVQSGAEVVKPGASVKISCKASGFNIKDYYLHWVRQRPGKGLEWIGWIDPENGDTVYDPKFQGRATITADTSTDTAYLELSSLTSEDTAVYFCSTLDFWGQGTLVTVSS VL: not shown | 84.9
5 | Hu3D6VHvb2 / Hu3D6VLvb3 (antibody, V domains shown, here or on the partner: pHrodo-labeled) VH: EVQLVQSGAEVVKPGASVKISCKASGFNIKDYYLHWVRQRPGKGLEWIGWIDPENGDTVYDPKFQGRATITADTSTDTAYLELSSLTSEDTAVYFCSTLDFWGQGTLVTVSS VL: DVVMTQSPLSLSVTLGEPASISCRSSQSLLDSDGKTYLNWLQQRPGQSPRRLIYLVSKLDSGVPDRFSGSGSGTDFTLKISRVEAEDVGVYYCWQGTHFPYTFGQGTKLEIKR | 85
6 | Hu3D6VHvb1 / Hu3D6VLvb1 (antibody, V domains shown, here or on the partner: pHrodo-labeled) VH: QVQLQQSGAELVKPGASVKLSCTASGFNIKDYYLHWVKQRPEQGLEWIGWIDPENGDTVYDPKFQGKATITADTSSNTAYLQLSSLTSEDTAVYFCSTLDFWGQGTTLTVSS VL: not shown | 80

Next, values leading:

Row | Inhibition of cell based internalization (at 133 nM antibody concentration, % of inhibition of maximal fluorescent signal) [%] | Binder
7 | 76.3 | Hu3D6VHvb6 / Hu3D6VLvb2 (antibody, V domains shown, here or on the partner: pHrodo-labeled) VH: EVQLVQSGAEVVKPGATVKISCKASGFTIKDYYLHWVRQRPGKGLEWIGWIDPEDGETVYDPKFQGRVTITADTSTDTAYMELSSLRSEDTAVYFCSTLDFWGQGTLVTVSS VL: not shown
8 | 61 | Hu3D6VHvb4 / Hu3D6VLvb2 (antibody, V domains shown, here or on the partner: pHrodo-labeled) VH: EVQLVQSGAEVVKPGATVKISCKASGFTIKDYYLHWVRQRPGKGLEWIGWIDPENGDTIYDPKFQGRVTITADTSTDTAYMELSSLRSEDTAVYYCSTLDFWGQGTLVTVSS VL: not shown
9 | 67.7 | Hu3D6VHvb5 / Hu3D6VLvb3 (antibody, V domains shown, here or on the partner: pHrodo-labeled) VH: EVQLVQSGAEVVKPGATVKISCKASGFTIKDYYLHWVRQRPGKGLEWIGWIDPEDGETIYDPKFQGRVTITADTSTDTAYMELSSLRSEDTAVYYCSTLDFWGQGTLVTVSS VL: DVVMTQSPLSLSVTLGEPASISCRSSQSLLDSDGKTYLNWLQQRPGQSPRRLIYLVSKLDSGVPDRFSGSGSGTDFTLKISRVEAEDVGVYYCWQGTHFPYTFGQGTKLEIKR
10 | 49 | Hu3D6VHvb4 / Hu3D6VLvb3 (antibody, V domains shown, here or on the partner: pHrodo-labeled) VH: EVQLVQSGAEVVKPGATVKISCKASGFTIKDYYLHWVRQRPGKGLEWIGWIDPENGDTIYDPKFQGRVTITADTSTDTAYMELSSLRSEDTAVYYCSTLDFWGQGTLVTVSS VL: DVVMTQSPLSLSVTLGEPASISCRSSQSLLDSDGKTYLNWLQQRPGQSPRRLIYLVSKLDSGVPDRFSGSGSGTDFTLKISRVEAEDVGVYYCWQGTHFPYTFGQGTKLEIKR
11 | 67.2 | Hu3D6VHvb5 / Hu3D6VLvb2 (antibody, V domains shown, here or on the partner: pHrodo-labeled) VH: EVQLVQSGAEVVKPGATVKISCKASGFTIKDYYLHWVRQRPGKGLEWIGWIDPEDGETIYDPKFQGRVTITADTSTDTAYMELSSLRSEDTAVYYCSTLDFWGQGTLVTVSS VL: not shown
12 | 70 | Hu3D6VHvb6 / Hu3D6VLvb3 (antibody, V domains shown, here or on the partner: pHrodo-labeled) VH: EVQLVQSGAEVVKPGATVKISCKASGFTIKDYYLHWVRQRPGKGLEWIGWIDPEDGETVYDPKFQGRVTITADTSTDTAYMELSSLRSEDTAVYFCSTLDFWGQGTLVTVSS VL: DVVMTQSPLSLSVTLGEPASISCRSSQSLLDSDGKTYLNWLQQRPGQSPRRLIYLVSKLDSGVPDRFSGSGSGTDFTLKISRVEAEDVGVYYCWQGTHFPYTFGQGTKLEIKR
13 | 74.5 | Hu3D6VHvb7 / Hu3D6VLvb2 (antibody, V domains shown, here or on the partner: pHrodo-labeled) VH: EVQLVQSGAEVVKPGATVKISCKASGFTIKDYYLHWVRQRPGKGLEWIGWIDPEDGETVYDPKFQGRVTITADTSTDTAYMELSSLRSEDTAVYYCSTLDFWGQGTLVTVSS VL: not shown
14 | 66 | Hu3D6VHvb7 / Hu3D6VLvb3 (antibody, V domains shown, here or on the partner: pHrodo-labeled) VH: EVQLVQSGAEVVKPGATVKISCKASGFTIKDYYLHWVRQRPGKGLEWIGWIDPEDGETVYDPKFQGRVTITADTSTDTAYMELSSLRSEDTAVYYCSTLDFWGQGTLVTVSS VL: DVVMTQSPLSLSVTLGEPASISCRSSQSLLDSDGKTYLNWLQQRPGQSPRRLIYLVSKLDSGVPDRFSGSGSGTDFTLKISRVEAEDVGVYYCWQGTHFPYTFGQGTKLEIKR
